Experimental data from patent publication US20200024322A1 (Eli Lilly, published 2020).
Numbered stars: 1 amine (or outer) side, 2 acyl side, 3 side chain; on linkers, the order of the positions; unused ones are H or OH. Square brackets hold non-standard residues; d marks the D form. Side chains are listed from the residue outwards. Ends that are not written are not given here. * marks the point of attachment. C20 diacid = O=C(O)CCCCCCCCCCCCCCCCCCC(=O)*; γGlu = O=C(O)[C@H](CCC(=O)[*:2])N[*:1]; AEEA = NCCOCCOCC(=O)O; Aib = CC(C)(N)C(=O)O

T1: human GIP receptor (human, UniProt P48546 22-466)
T1 construct: whole, on cells; Used as crude membranes of stably transfected CHO cells; also called hGIPR
T1 sequence (looked up): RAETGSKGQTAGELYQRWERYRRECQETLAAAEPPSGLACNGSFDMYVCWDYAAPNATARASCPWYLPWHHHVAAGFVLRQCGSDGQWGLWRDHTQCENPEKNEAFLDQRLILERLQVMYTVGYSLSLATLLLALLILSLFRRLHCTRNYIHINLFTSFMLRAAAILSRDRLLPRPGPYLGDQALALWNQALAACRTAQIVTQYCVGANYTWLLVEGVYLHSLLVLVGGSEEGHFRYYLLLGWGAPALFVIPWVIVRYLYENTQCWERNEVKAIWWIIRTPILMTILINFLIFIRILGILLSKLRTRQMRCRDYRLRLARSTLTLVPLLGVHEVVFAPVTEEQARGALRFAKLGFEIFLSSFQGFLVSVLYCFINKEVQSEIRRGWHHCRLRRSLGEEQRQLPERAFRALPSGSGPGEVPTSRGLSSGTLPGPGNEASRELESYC


Assays:
human GIP receptor = biological target: T1, human GIP receptor; assay: SPA, [125I]-GIP displacement, hGIPR membranes
human glucagon receptor = biological target: T2, human glucagon receptor (human, UniProt P47871 26-477); assay: SPA, [125I]-Gcg displacement, hGcgR membranes
T2 construct: whole, on cells; Used as crude membranes of stably transfected HEK293 cells; also called hGcgR; hGLcgR

human GLP-1 receptor = biological target: T3, human GLP-1 receptor (human, UniProt P43220 24-463); assay: SPA, [125I]-GLP-1 displacement, hGLP-1R membranes
T3 construct: whole, on cells; Used as crude membranes of stably transfected HEK293 cells; also called hGLP1R; hGLP-1R

T2 sequence (P47871 26-477): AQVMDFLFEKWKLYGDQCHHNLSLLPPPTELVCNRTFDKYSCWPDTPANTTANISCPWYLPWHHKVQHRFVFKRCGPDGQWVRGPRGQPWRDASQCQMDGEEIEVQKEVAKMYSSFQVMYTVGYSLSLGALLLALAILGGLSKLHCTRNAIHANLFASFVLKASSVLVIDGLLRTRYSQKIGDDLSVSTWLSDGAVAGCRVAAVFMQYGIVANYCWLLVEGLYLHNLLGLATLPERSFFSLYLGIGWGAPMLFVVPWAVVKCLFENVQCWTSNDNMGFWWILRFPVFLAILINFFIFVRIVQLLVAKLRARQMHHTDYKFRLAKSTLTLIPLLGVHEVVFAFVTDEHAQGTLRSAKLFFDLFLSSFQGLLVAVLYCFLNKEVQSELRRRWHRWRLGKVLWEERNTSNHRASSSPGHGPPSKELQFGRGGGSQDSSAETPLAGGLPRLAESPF

Binder	Ki (human GIP receptor)	Ki (human glucagon receptor)	Ki (human GLP-1 receptor)
Y[Aib]EGTFTSDYSILLDKIAQ[Aib]AFIEYLIEGK([AEEA-AEEA-γGlu-C20 diacid])PSSGAPPPS-NH2 (N-terminus assumed; SMILES CC[C@H](C)[C@H](NC(=O)[C@H](CCCCN)NC(=O)[C@H](CC(=O)O)NC(=O)[C@H](CC(C)C)NC(=O)[C@H](CC(C)C)NC(=O)[C@@H](NC(=O)[C@H](CO)NC(=O)[C@H](Cc1ccc(O)cc1)NC(=O)[C@H](CC(=O)O)NC(=O)[C@H](CO)NC(=O)[C@@H](NC(=O)[C@H](Cc1ccccc1)NC(=O)[C@@H](NC(=O)CNC(=O)[C@H](CCC(=O)O)NC(=O)C(C)(C)NC(=O)[C@@H](N)Cc1ccc(O)cc1)[C@@H](C)O)[C@@H](C)O)[C@@H](C)CC)C(=O)N[C@@H](C)C(=O)N[C@@H](CCC(N)=O)C(=O)NC(C)(C)C(=O)N[C@@H](C)C(=O)N[C@@H](Cc1ccccc1)C(=O)N[C@H](C(=O)N[C@@H](CCC(=O)O)C(=O)N[C@@H](Cc1ccc(O)cc1)C(=O)N[C@@H](CC(C)C)C(=O)N[C@H](C(=O)N[C@@H](CCC(=O)O)C(=O)NCC(=O)N[C@@H](CCCCNC(=O)COCCOCCNC(=O)COCCOCCNC(=O)CC[C@H](NC(=O)CCCCCCCCCCCCCCCCCCC(=O)O)C(=O)O)C(=O)N1CCC[C@H]1C(=O)N[C@@H](CO)C(=O)N[C@@H](CO)C(=O)NCC(=O)N[C@@H](C)C(=O)N1CCC[C@H]1C(=O)N1CCC[C@H]1C(=O)N1CCC[C@H]1C(=O)N[C@@H](CO)C(N)=O)[C@@H](C)CC)[C@@H](C)CC) [Example 39]	0.0499 nM	161 nM	16.8 nM
Y[Aib]EGTFTSDYSILLDKIAQ[Aib]AFIEYLIEGGPSK([AEEA-AEEA-γGlu-C20 diacid])GAPPPS-NH2 (N-terminus assumed; SMILES CC[C@H](C)[C@H](NC(=O)[C@H](CCCCN)NC(=O)[C@H](CC(=O)O)NC(=O)[C@H](CC(C)C)NC(=O)[C@H](CC(C)C)NC(=O)[C@@H](NC(=O)[C@H](CO)NC(=O)[C@H](Cc1ccc(O)cc1)NC(=O)[C@H](CC(=O)O)NC(=O)[C@H](CO)NC(=O)[C@@H](NC(=O)[C@H](Cc1ccccc1)NC(=O)[C@@H](NC(=O)CNC(=O)[C@H](CCC(=O)O)NC(=O)C(C)(C)NC(=O)[C@@H](N)Cc1ccc(O)cc1)[C@@H](C)O)[C@@H](C)O)[C@@H](C)CC)C(=O)N[C@@H](C)C(=O)N[C@@H](CCC(N)=O)C(=O)NC(C)(C)C(=O)N[C@@H](C)C(=O)N[C@@H](Cc1ccccc1)C(=O)N[C@H](C(=O)N[C@@H](CCC(=O)O)C(=O)N[C@@H](Cc1ccc(O)cc1)C(=O)N[C@@H](CC(C)C)C(=O)N[C@H](C(=O)N[C@@H](CCC(=O)O)C(=O)NCC(=O)NCC(=O)N1CCC[C@H]1C(=O)N[C@@H](CO)C(=O)N[C@@H](CCCCNC(=O)COCCOCCNC(=O)COCCOCCNC(=O)CC[C@H](NC(=O)CCCCCCCCCCCCCCCCCCC(=O)O)C(=O)O)C(=O)NCC(=O)N[C@@H](C)C(=O)N1CCC[C@H]1C(=O)N1CCC[C@H]1C(=O)N1CCC[C@H]1C(=O)N[C@@H](CO)C(N)=O)[C@@H](C)CC)[C@@H](C)CC) [Example 42]	0.0514 nM	160 nM	13.2 nM
Y[Aib]EGTFTSDYSILLDKIAQ[Aib]AFIEYLIEGGK([AEEA-AEEA-γGlu-C20 diacid])SSGAPPPS-NH2 (N-terminus assumed; SMILES CC[C@H](C)[C@H](NC(=O)[C@H](CCCCN)NC(=O)[C@H](CC(=O)O)NC(=O)[C@H](CC(C)C)NC(=O)[C@H](CC(C)C)NC(=O)[C@@H](NC(=O)[C@H](CO)NC(=O)[C@H](Cc1ccc(O)cc1)NC(=O)[C@H](CC(=O)O)NC(=O)[C@H](CO)NC(=O)[C@@H](NC(=O)[C@H](Cc1ccccc1)NC(=O)[C@@H](NC(=O)CNC(=O)[C@H](CCC(=O)O)NC(=O)C(C)(C)NC(=O)[C@@H](N)Cc1ccc(O)cc1)[C@@H](C)O)[C@@H](C)O)[C@@H](C)CC)C(=O)N[C@@H](C)C(=O)N[C@@H](CCC(N)=O)C(=O)NC(C)(C)C(=O)N[C@@H](C)C(=O)N[C@@H](Cc1ccccc1)C(=O)N[C@H](C(=O)N[C@@H](CCC(=O)O)C(=O)N[C@@H](Cc1ccc(O)cc1)C(=O)N[C@@H](CC(C)C)C(=O)N[C@H](C(=O)N[C@@H](CCC(=O)O)C(=O)NCC(=O)NCC(=O)N[C@@H](CCCCNC(=O)COCCOCCNC(=O)COCCOCCNC(=O)CC[C@H](NC(=O)CCCCCCCCCCCCCCCCCCC(=O)O)C(=O)O)C(=O)N[C@@H](CO)C(=O)N[C@@H](CO)C(=O)NCC(=O)N[C@@H](C)C(=O)N1CCC[C@H]1C(=O)N1CCC[C@H]1C(=O)N1CCC[C@H]1C(=O)N[C@@H](CO)C(N)=O)[C@@H](C)CC)[C@@H](C)CC) [Example 40]	0.0345 nM	150 nM	7.56 nM
Y[Aib]EGTFTSDYSILLDKIAQ[Aib]AFIEYLIEGGPK([AEEA-AEEA-γGlu-C20 diacid])SGAPPPS-NH2 (N-terminus assumed; SMILES CC[C@H](C)[C@H](NC(=O)[C@H](CCCCN)NC(=O)[C@H](CC(=O)O)NC(=O)[C@H](CC(C)C)NC(=O)[C@H](CC(C)C)NC(=O)[C@@H](NC(=O)[C@H](CO)NC(=O)[C@H](Cc1ccc(O)cc1)NC(=O)[C@H](CC(=O)O)NC(=O)[C@H](CO)NC(=O)[C@@H](NC(=O)[C@H](Cc1ccccc1)NC(=O)[C@@H](NC(=O)CNC(=O)[C@H](CCC(=O)O)NC(=O)C(C)(C)NC(=O)[C@@H](N)Cc1ccc(O)cc1)[C@@H](C)O)[C@@H](C)O)[C@@H](C)CC)C(=O)N[C@@H](C)C(=O)N[C@@H](CCC(N)=O)C(=O)NC(C)(C)C(=O)N[C@@H](C)C(=O)N[C@@H](Cc1ccccc1)C(=O)N[C@H](C(=O)N[C@@H](CCC(=O)O)C(=O)N[C@@H](Cc1ccc(O)cc1)C(=O)N[C@@H](CC(C)C)C(=O)N[C@H](C(=O)N[C@@H](CCC(=O)O)C(=O)NCC(=O)NCC(=O)N1CCC[C@H]1C(=O)N[C@@H](CCCCNC(=O)COCCOCCNC(=O)COCCOCCNC(=O)CC[C@H](NC(=O)CCCCCCCCCCCCCCCCCCC(=O)O)C(=O)O)C(=O)N[C@@H](CO)C(=O)NCC(=O)N[C@@H](C)C(=O)N1CCC[C@H]1C(=O)N1CCC[C@H]1C(=O)N1CCC[C@H]1C(=O)N[C@@H](CO)C(N)=O)[C@@H](C)CC)[C@@H](C)CC) [Example 41]	0.0551 nM	165 nM	13.4 nM
